For 2 molecules, Kd results are on record in article PMC5063126.

One assay deals with TMR-BID BH3. The assay can be described thus: fluorescence polarisation; fluorescence anisotropy; Bcl-xL titrated into TMR-BID BH3 (5 nM) in sodium phosphate buffer (50 mM, pH 7.5) with sodium chloride (10 mM), 15 °C; fit to the Langmuir isotherm, apparent dissociation constant, at least three independent curves averaged.
For the next assay, the target named is Bcl-xL (UniProt Q07817). Nature of the assay: not stated; fluorescently labelled peptide with Bcl-xL; data in Table S4.

Ends that are not written are not given here. fluorophore = not defined here

“Bcl-xL (from UniProt Q07817-1 1-209) (domain or fragment)”: the Kd with TMR-BID BH3 is 27 nM.

B1: LOV-BID peptide (peptide)
peptide: DC(fluorophore)AEDIGVNIARHLAQVGDSIDRSI
modifications: reading uncertain; also: fluorophore not named
In the assay with Bcl-xL, B1 showed a Kd of 46 nM.
